Test results as given in patent publication US6774106 (Amgen, dated 2004).

Columns and labels:
[1] = target: T1, mouse BCMA expressed on 293 cells (sense pmBCMA vector) (mouse, UniProt O88472 1-185); assay: FACS on transfected 293 cells, G70/APRIL-Flag then FITC anti-Flag antibody
T1 construct: also called exogenous BCMA; BCMA gene
T1 sequence: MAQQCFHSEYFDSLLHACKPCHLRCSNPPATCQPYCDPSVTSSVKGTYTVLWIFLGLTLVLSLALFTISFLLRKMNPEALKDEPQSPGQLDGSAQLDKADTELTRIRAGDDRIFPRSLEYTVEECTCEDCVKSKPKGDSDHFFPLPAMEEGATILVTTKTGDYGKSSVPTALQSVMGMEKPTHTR
Procedure: (§1) FIGS. 14A, 14B and 14C show soluble mouse G70/APRIL binding to 293 cells expressing the BCMA gene. Human 293 cells transfected with the pmBCMA and pcDNA3 vectors were incubated with G70/APRIL-Flag, followed by FITC-conjugated anti-Flag antibody staining for FACS analysis. A. 293 cells transfected with pcDNA3 vector only. B. 293 cells transfected with antisense pmBCMA vector. C. 293 cells transfected with sense pmBCMA vector.
(§2) Human 293 cells transfected with the phTACI and pcDNA3 vectors were incubated with G70/APRIL-Flag, followed by FITC-conjugated anti-Flag antibody staining for FACS analysis.

[2] = target: T2, human TACI expressed on 293 cells (phTACI vector) (human, UniProt O14836 1-293); assay: as above
T2 construct: also called hTACI gene
T2 sequence: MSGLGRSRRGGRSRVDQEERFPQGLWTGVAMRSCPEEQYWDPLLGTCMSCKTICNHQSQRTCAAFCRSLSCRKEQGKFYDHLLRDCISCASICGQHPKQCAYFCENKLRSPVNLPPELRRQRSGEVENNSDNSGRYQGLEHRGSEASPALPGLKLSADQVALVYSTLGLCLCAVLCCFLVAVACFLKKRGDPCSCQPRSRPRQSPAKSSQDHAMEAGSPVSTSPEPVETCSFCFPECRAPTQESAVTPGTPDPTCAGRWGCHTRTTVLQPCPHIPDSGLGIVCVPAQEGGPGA
Procedure: as §1, §2

binding result [1]: binds | binding result [2]: binds
B1: Soluble murine APRIL-Flag protein (FLAG-tagged soluble mouse APRIL) (ligand)
chain: MDYKDDDDKKHKKKHSVLHLVPVNITSKDSDVTEVMWQPVLRRGRGLEAQGDIVRVWDTGIYLLYSQVLFHDVTFTMGQVVSREGQGRRETLFRCIRSMPSDPDRAYNSCYSAGVFHLHQGDIITVKIPRANAKLSLSPHGTFLGFVKL
notes: also called Flag-APRIL; Flag-mAPRIL
